Data as given in the DeepSol protein solubility set.

test: soluble on expression in E. coli; label from the status in PepcDB or PDB records

Sequence	soluble on expression in E. coli
RETFNYMLPGAGVRGAAMARTAGRWGERVVSHNATFKLLTDLRIFFFKKLAPLIPGRVSTMRDADLLNRLVADVDAMDHVYLR	not soluble
RGGSFAKSWRPMTMSYANLSVDKVEHRALVLNTPYSIIRTIGKQGLEEKRFYASEKELEQVFNPIHHLATDTTARFSQLRGRNVMVIIIESFARQYVGRLNQDIPDYKGYTPCFDSISQKGYLFEQAFANGRKSIDAMPSILSSLPSLRSHFITSHYSGNEIEGLGTALGRIGYQSIFLHGAPNGSMGFDAFVKQAGYKRYFGKTEYAHDEDFDGVWGIWDEPFLLHAVDELSRMKQPFVGTLFTLSSHEPFHIPSHREGLFPNEGEPLVQCIGYTDHALGEFFRKASRQTWFENTLFVITADHASGDLRPEYRSAVGR	not soluble
RGRGAAAWRILRCRRLPEPSPFLTQPNLAQSQPPAPVPVTDPSVTMHPAVFLSLPDLRCSLLLLVTWVFTPVTTEITSLDTENIDEILNNADVALVNFYADWCRFSQMLHPIFEEASDVIKEEFPNENQVVFARVDCDQHSDIAQRYRISKYPTLKLFRNGMMMKREYRGQRSVKALADYIRQQKSDPIQEIRDLAEITTLDRSKRNIIGYFEQKDSDNYRVFERVANILHDDCAFLSAFGDVSKPERYSGDNIIYKPPGHSAPDMVYLGAMTNFDVTYNWIQDKCVPLVREITFENGEELTEEGLPFLILFHMKEDTESLEIFQNEVARQLISEKGTINFLHADCDKFRHPLLHIQKTPADCPVIAIDSFRHMYVFGDFKDVLIPGKLKQFVFDLHSGKLHREFHHGPDPTDTAPGEQAQDVASSPPESSFQKLAPSEYRYTLLRDRDEL	soluble
RHMASIEKVANCIRCLAADIVQGGKSGHPGTPMGMAPMSAVLWTEVMKYNSQDPDWVDRDRFVMSNGHGCALQYALLHMAGYNLTMDDLKGFRQDGSRTPGHPERFVTPGVEVTTGPLGQGIANAVGLAIAEAHLAATFNRPGYNIVDHYTYVYCGDGCLMEGVCQEALSLAGHLALEKLIVIYDSNYISIDGSTSLSFTEQCHQKYVAMGFHVIEVKNGDTDYEGLRKALAEAKATKGKPKMIVQTTTIGFGSSKQGTEKVHGAPLGEEDIANIKAKFGRDPQKKYDVDDDVRAVFRMHIDKCSAEQKAWEELLAKYTAAFPAEGAAFVAQMRGELPSGWEAKLPTNSSAIATRKASENCLAVLFPAIPALMGGSADLTPSNLTRPASANLVDFSSSSKEGRYIRFGVREHAMCAILNGLDAHDGIIPFGGTFLNFIGYALGAVRLAAISHHRVIYVATHDSIGVGEDGPTHQPVELVAALRAMPNLQVIRPSDQTETSGAWAVALSSIHTPTVLCLSRQNTEPQSGSSIEGVRHGAYSVVDVPDLQLVIVASGSEVSLAVDAAKALSGELRVRVVSMPCQELFDAQPDTYRQAVLPAGVPVVSVEAYVSFGWEKYSHAHVGMSGFGASAPAGVLYKKFGITVEEVVRTGRELAKRFPDGTAPLKNSSFSKM	soluble
RIVCQFSCGAASAVATKLALADYSATHDVQILNAYLVNEHADSLRFLADCEAWFEQPVTVLRDEKYGADIIEVFRRERFIKKQYGASCTQLLKRRLLDIWKLPGDVMVFGYTAEEADRLEDFRERNPDRPVIAPLIDRGLGKEDCKAMIQRAGIELPVMYRMGYDNANCI	not soluble
RLAVGDEITAAGELLAGGKILAIKGIGGFHLAVDASNEAAVRRLRSRKGREEKPFAVMVRDLAAARALCDISPEEKAALASPQAPIVLLRARQGLSLAPSIAPGNDRLGVMLPYSPLHWLLLREGPKVLVMTSANFSEEPLVADNAEALERLAGIADAFLMHDRPIARRCDDSVVMSMAGAVRLIRRSRGYAPAPVRLAES	not soluble
RLLGAPVPVDENDEGLQRALQFAMAEYNRASNDKYSSRVVRVISAKRQLVSGIKYILQVEIGRTTCPKSSGDLQSCEFHDEPEMAKYTTCTFVVYSIPWLNQIKLLESKCQ	soluble
RQSVQTVLPESTGNNTLSLRDSVCRDLFQLFSSPHSPLPILLVSGMPEWQGHNQSDKLLQSWYCRQLRSALLFHEPRIAALQVNLKEAYCHELAISLEMMLYHDDEPLTFDLVWQKG	not soluble
RRENARRFDRKQYDFVDIDECAIQTKTYPGSDHDMAQDWLQKQMMILKPKYREPLLLSLVAGLNHDEIAQALRLNHNTVATRLFRARNQLIAQQGNH	not soluble
RRRFDEKRREMLMGKLEEINQKRIAEALESEKKSLEKVSRSDQLRIDLITNVSHDLKTPLTSMVGYIELIKKEELSDLVRDYVDVLSERAEKLKEMINSLFSLAKASSGNIELHPEKFELNRLVEQIFADMHDHVKESELQFVKQFTEENTEIISDNMYFYRICQNLIENALKYSAKHTRVFVKTYQKESSNHLCLEITNTAGYPMDFTKEEIIERFFRGDKQRSSEGNGLGLAIVSTYVKALGGEFDIKIDCDQFKACVEMPLSAITIT	not soluble
RSAEALFEKAVTPSDVGKLNRLVIPKHHAEKHFPLPSSNVSVKGVLLNFEDVNGKVWRFRYSYWNSSQSYVLTKGWSRFVKEKNLRAGDVVSFSRSNGQDQQLYIGWKSRSGSDLDA	soluble
RSFGLIIPDLENTSYARLAKLIEQNSRKAGYQILIGCSDDDPETEKKVAEALISRRIDALFVASGMPSANEYYLKLQNSGTPVIALDRPMDDEHFCCVISEDFDAAFELTESVLSPEIKTIGLIGALQDLQVSKERELGFRSACQKDDTAMTVGYGLHFSREEGKKVLDKWVQADSLPDAIVTTSYTLLEGVLDVMLEKPELMSQVRLATFGDNRLLDFLPVKINSLPQQFELIADSAMELALNASAKRYKPGVELIPRKIVKRQ	not soluble
RSVRVLVDMDGVLADFEAGLLRGFRRRFPEEPHVPLEQRRGFLAREQYRALRPDLADKVASVYEAPGFFLDLEPIPGALDAVREMNDLPDTQVFICTSPLLKYHHCVGEKYRWVEQHLGPQFVERIILTRDKTVVLGDLLIDDKDTVRGQEETPSWEHILFTCCHNRHLVLPPTRRRLLSWSDNWREILDSKR	soluble
RTDNLGLAPYGRVDLSGGSFGTFRRSVKLGSGRIGRHWAVDARLSKIGSDGYVDRGSVDLKSYFAQVGYFGSNTALRFITFGGKEVTGIAWNGLSKEDEAKYGRRYNSAGLMYVDAQGVPHYYHNTDNYEQRHYHAIMTHSFSPSVILNLTAHYTAGYGYTDEYRTGRKLKEYALQPYVENSVTVKKTDLIRQKYLDNDFGGLIGSLNWHTGAWDLQFGASGNIYKGDHFGRITYIKKYNQPLAPDFEYYRNRADKREGAAFAKANWQITPELNMYADLQYRTIGYTINGITDEYDEVQGSMQHIDLDKTFRFLNPKAGLTYSFDDAHTAYASVAVAHREPNRTNYTEAGIGQYPTPERLIDYELGYRYASPLLSAGVGLYYMQYKDQLVLDGRLSDVGQMLTSNVPDSYRMGLELTLGWQILPRLLRWDASFTMSRNKIDRYVQYTSVYDADYNWLELKEETLESTDIAYSPNVIAGSMLTLSHAGFEMAWTSRFVSKQYLDNTQRSDRMLSSYWVNDLRLGYVLPVHFVKRVALGVQLNNLFNLMYASNAYIYDAGYVQASGELSAYADLRYYPQAGFNALGSLTIDF	not soluble
RVETQPEVQLPGPAPNLRAYAASPTSITVTWETPVSGNGEIQNYKLYYMEKGTDKEQDVDVSSHSYTINGLKKYTEYSFRVVAYNKHGPGVSTPDVAVRTLSD	soluble
RVTVMLAAFEGWNDAGEAASDALHYLNKLWDGKKVATVDAEEYYDFQFTRPTVRRTSSGARKVKWPSTRIYKAEVPDSNVDVVLVLGTEPSYRWRAYTTELLVHAEALKVDSVILVGALLADVPHSRPIPVSTTTEDSSLRERLNLEASQYEGPVGIVGVLAEFAMLAGLPTVSLWAAVPHYVAQPPSPKAQLAILHRIEDLLQVPLDSQALAEESEAWERGVDELATEDPEITAYVRQLEEAKDTADLPE	not soluble
SAADLGQIPDVDIDSDGVFKYVLIRVHLAEPSGDPAKECKEIVRGYKWAEYHADIYDKVSGELQRNGYDCECLGGGRISHQSQDRKIHVYGYSMGYGRAQHSVSTEKIKAKYPDYEVTWADDGY	soluble
